Measured values taken from the supplement of paper PMC12764529.
± gives the half width of the 95% confidence interval.

Assay: folding stability dG unfold (combined trypsin and chymotrypsin); higher = more stable
Description: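 Folding stability of de novo designed mini-proteins (<80 aa, no Cys; designed by TrROS, TrMRF, ProteinMPNN and the joint model) was measured by cDNA display proteolysis with trypsin and chymotrypsin. Each protease was used at 11 concentrations in a threefold dilution series plus a no-protease condition. K50 was inferred by Bayesian fitting of sequencing counts, and dG unfold was derived against a sequence-predicted unfolded-state K50 (Tsuboyama et al. method). Sequences shown include variable-length N-terminal GS-type padding (SAGGSAGG...) inside a display construct carrying a PA tag. Rows were kept only if the AF2 dimer inter-PAE was >15, to exclude likely homo-oligomers.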

Sequence	folding stability dG unfold [kcal/mol]
EPEYVVFVDINPVFTRVDENGNVLEEFPRKVPYTGPGKDPEKVREELEREYGPPVKILKTLPKSEVDAGLLS [r1_493_JUSTAS]	< -1
GMRPVTATIEIGPNGKLTLQPAVGPSTVVPVKSKEEGIAVVKELVPPDRPITLTFYEKSKKISTEPIEIPPS [r1_276_JUSTAS]	< -1
KVPAGVEDVKVVKGPLTVKITAPVKNPNVPIKVGNKDGKVVSEKWKVDKAAGKVTVEVPVKKANEVTFNPES [r1_138_TrMRF]	< -1
MKIVIDKDGNIRIEIIDKDGKKITLTLPVKTLEEALQKIKDLIRELFPDAKDLKVKVVEVKDGYVVIEVEPS [r1_389_TrROS_Hall]	> 6
PIITVSSLEELKKAIKELVEKIVEEAKKAGYPDKKVIVSIPVVLIDEKTGKPKILPILIEIYPDGTVKIYGS [r1_316_TrMRF]	> 6
PINPEIAEKLKVAIANKLKEAGYKVKSVSISPLPDGTISGKVGDKTVTLPLPNGGTAGISVEAEKVSPEEAS [r1_31_TrMRF]	< -1
SADWYYWKNPKDGKEHTVDPEELSPEFAKKGIEPEEPVPPVINIDVDSAEQADELADEFPNKVQVQPNGSAG [r14_638_TrROS]	< -1
SAGAKLYTVKAPGSSELLKGLKEKGVEILGTEENVVVVKVPVVPPLTPEAIEEAKKEGLTLEEAIKKASAGG [r19_115_TrMRF]	< -1
SAGGEFKLKREEDPDGERKITLEFPGWPYEVVIPKNAKDLPPGNPIYVRGGGGTRTMPIKDLLPELLNSAGG [r13_97_TrROS]	< -1
SAGGEGEELIIPSSFPLEKIEELEKAHPDAKAEIVEINLRGPVLLPGGGVRPVPSFLKVRLYRREERSAGGS [r8_172_TrMRF]	< -1
SAGGGGMTVEPVAERRFPSGRRITFYRRELPTPTVLEDVVVEYPDGSVRTITVPVGEEAAAVAAVLASAGGS [r16_588_JUSTAS]	< -1
SAGGGSSMSPISDQQTSSSLPDGTTVTRTTTTYPTSVLVTTTTTDPATGAPTTTTTTYTTPGSSVAGSAGGS [r16_419_JUSTAS]	< -1
SAGGGWEKIPITPNDKNQAKEIADEFADKLQQDPGIPKEVEIDVQPPPNNQYWIEVEYPGKKLEIPISAGGS [r16_356_TrROS]	< -1
SAGGIRMPPGQTQTFKLPGRKIEVHMGPNGPIYIEIENPGNGEPVEVPMRGDMTIDEMADAILDKLGSAGGS [r8_158_TrROS]	< -1
SAGGKDAIVNVVEIPIKIEVKTKTKNPILPDGIPIPETELEVKIEIPIKVKPVKVKLEKPGKIVSVEDSAGG [r13_148_TrMRF]	< -1
SAGGKPMIHINMEENPNGNPYMRVQVMRMDPKNNGWKPVEEVRFDSPQDMRDEAKELADKEGVYLMISAGGS [r16_512_TrROS]	< -1
SAGGMEEIAEKLPVTKIETLEVDPEPPVVKVKLTLKDESGTEKEIELTIELPPEPLPVPKFPPERILLSAGG [r13_608_JUSTAS]	< -1
SAGGMIVLEFTDPSELEKLEEKVEEIKEELIKEGIKPPNVEIKVTRTTRKLPNGTERYTAPVSIKLPSAGGS [r16_591_JUSTAS]	< -1
SAGGMKTIEYPVVMDEEEAVKLVEELVAKAKAEGEETVVKVEVYRIGKGPDGVPTREKLGTYEVEVPGSAGG [r13_974_JUSTAS]	< -1

Sequence	folding stability dG unfold [kcal/mol]
SAGGMKTIKLPPFTEEELEKVIEEAEKNPNSDVKITLPEGKEYYIKPPGKLKELKVEELPPLPESLESAGGS [r16_248_JUSTAS]	< -1
SAGGMKTVVTTEPATFDATDPNTGVPIGTVTIGPVVTTKPPNAVTTHYTFRIGGTEVATSTTTNPGLASAGG [r13_758_JUSTAS]	< -1
SAGGMRLADTLEEVENAAPGEIVALRAPDPLTPRPVVLVFRNPDGELGPLAYADADGNIHLPEELKEAGSAG [r5_490_TrMRF]	< -1
SAGGMSIRELLKEKGIPIKVENEPTDGRPRMKITIQDNDKPVKIDMPMDDPERMIRDAAKELGLKPISAGGS [r8_226_TrROS]	< -1
SAGGMTLEEVRALAQRVSREPLPGGGSRWVVTFPRPVPGGPAAPVTREIPVPADRPDATEEEVLARLVSAGG [r13_319_JUSTAS]	< -1
SAGGMTSEVIETTEEEPERLIKKTFKVTYDENGTPKPELLKVETSPVPEEEIDPSNAPKEKAEKLGLLSAGG [r13_964_JUSTAS]	< -1
SAGGMVVELPSGLSPEELERAAEEIAAELPRRGVDPVEVTIEPVREVAPPDGPPVRLYRITIDTVPPSAGGS [r16_266_JUSTAS]	< -1
SAGGNKITIEVNMNPEEGYYMVPIEIPRRDPNGEPEKRKIEVMVPMSPNAQEKAKNLANKLGIDKIYSAGGS [r8_381_TrROS]	< -1
SAGGPGKYRVIFYPKDTDKPIEADVPASHIKKFDPKNNFIEISAPPGPTLTIPDPDKVKKVIIEPIPSAGGS [r8_111_TrMRF]	< -1
SAGGPNFEIEPEWDPDNGIVKETIKVPPGMTPEAINDALEIEFPDGMEVQIKPIKDGTIKVYMRMPKSAGGS [r8_255_TrROS]	< -1
SAGGPPKIKITDIRPNKGHMRYKIKDPNKEVEIHMHGNSMHIEYPDGKEKTFDGPGSFEDAAKRIIEKSAGG [r13_98_TrROS]	< -1
SAGGPPKKIEDIKIEDWRYDPENNQVTNTIELENDNGKEREIDVQMPNEDMEDMPPEEMLKAAKDFIDSAGG [r13_512_TrROS]	< -1
SAGGRGPGLPVSERKIVETRDLDPDEVSEEEIAERIKEENPDAVVEELEVDTKESKAVFKIKVKKLESAGGS [r8_202_JUSTAS]	< -1
SAGGRYLTLRIPPNHPGDIDIEPVPADDMPPGWGYKIYSPKKGHTQTFPLDNADELLDHPGIDEIEPVSAGG [r19_302_TrROS]	< -1
SAGGSAASRVSVEKLPNGTVVTPVEVEVTTYKPYPSYDGTPTTVPVTTRTTRTVTTEGNVVTTEVASAGGSA [r15_883_JUSTAS]	< -1
SAGGSAATVVDPSTGSTYTFTPEGSGYRITRTLVTPDPTSDAVSTAPTTELLPPSEIPPELLARLSSAGGSA [r15_703_JUSTAS]	< -1
SAGGSAEKPIPFGNYQIRIHEIDPKEGKITIHVPDNMPPNMKEQARDWLQERGLPIEVEPVPAEDISAGGSA [r15_570_TrROS]	< -1
SAGGSAFFRIKVEKNNGKKREIMFPIPENHDPSEAREMVKELAKNIARKQGHPNVPIKVTDIEPFPSAGGSA [r15_463_TrROS]	< -1
SAGGSAGGAEAVEAAKAKLPPDEERTVVVPDPDDPSRVTTYTLTARGDEVEVPVTTEPVPPGLESAGGSAGG [r6_393_JUSTAS]	< -1

Sequence	folding stability dG unfold [kcal/mol]
SAGGSAGGDNKPLRVRIRSPANGQKMKFKIKPDKIEPGKTIEIKHGDKPHTFNINPAQIDELEPSAGGSAGG [r6_461_TrROS]	< -1
SAGGSAGGEKPLKVTIKVKEKRLTENGIPEEFEKEIVVEAPLEEATKLVKAIPKDKVVSVEVEGSAGGSAGG [r6_984_TrMRF]	< -1
SAGGSAGGEVEEEALKVAEELRREGKTGPVEKTVDIVVKTPENVPIPLNITVTVEPPSGVVTVNSAGGSAGG [r6_102_JUSTAS]	< -1
SAGGSAGGFTFRDPENGRKITIEPQPNPDGPMYYNIEVRDPDNNENKTINFPMPLNEIEDLAKDSAGGSAGG [r6_996_TrROS]	< -1
SAGGSAGGMITDADGNAFEVASAEPFELANGEPVIRFRFKGSGEIRTVPAADIPDGIPEEAKFESAGGSAGG [r6_370_TrMRF]	< -1
SAGGSAGGMKITEVTSEAPVPETGEVVRVAKTEDGSTITTVEYPGTGETRVYREKPDEVTPIALSAGGSAGG [r6_796_JUSTAS]	-0.865 ± 0.79
SAGGSAGGMKTIPLPGWTPEEFREVIKKHGGTFTIERPGGEKVTVDFTPDSEPPPEEPHTLIISSAGGSAGG [r6_304_JUSTAS]	< -1
SAGGSAGGMPLRVDFRPSDSDEVTTRELPLTGDEEEARARVEAAAPPGVASVDLDPEAFRAAAASAGGSAGG [r6_889_JUSTAS]	< -1
SAGGSAGGNTITLPLPDGRKLTIDMHPNPDGNMYVNIDVQTPGKEKEITVPMDNPAIREAVKELSAGGSAGG [r6_607_TrROS]	< -1
SAGGSAGGPKPAKIKEVPFKMRHPGNGQPHKMEIKEVRPDGMIEIDFPNGEEHRIPGMKIDEIESAGGSAGG [r6_435_TrROS]	< -1
SAGGSAGGPPPLIVTIKLEHKREKPNGEPEKRKHEIIVDAPNEQADKLAKKMPPDNVEDVEIAKSAGGSAGG [r6_985_TrROS]	< -1
SAGGSAGGPPVVTKTDPNTGAVYTKVGDTWTSTPVPPPVVVRPVPLYDPDGRPLATGYTVLRLESAGGSAGG [r6_313_JUSTAS]	< -1
SAGGSAGGPVIPTPSDLVVEVGKLSEELSFLSKSVRPNGPEELVFDSSVLVEEGVKVLKPSDRRSAGGSAGG [r6_586_JUSTAS]	< -1
SAGGSAGGSAAPVSEREVTLTGSGTPRVVPVRVLGEAASPSESIATEATLPDGRPLRLTLRESAGGSAGGSA [r18_54_JUSTAS]	< -1
SAGGSAGGSAASNGPLPVPLPETVIEAPLDEVPDEEIRARLPEELAEEFLRRMPPDATVLLSAGGSAGGSAG [r3_326_JUSTAS]	< -1
SAGGSAGGSAEEEKTVVEEKVEVKVEVKLKAPPPPEVTVSVELDEETNELKITASAEALKKSAGGSAGGSAG [r3_186_TrROS_Hall]	< -1
SAGGSAGGSAEEISPEGVATRTLPDGRTVELTQDPAKGTVTTTVYTPSGTPVSSSTTPVNPSAGGSAGGSAG [r3_447_JUSTAS]	< -1
SAGGSAGGSAEELAKKLAEELGVKVEVEEKDGKLVVKIEKKKAKPKPKKVEKKKYYSEEELKSAGGSAGGSA [r18_27_TrROS_Hall]	< -1
SAGGSAGGSAGDKPIKIFWNPEFPGRVYIKTPDKERPVPLNDLEELGIDEVVPMEEAMEQSAGGSAGGSAGG [r17_88_TrROS]	< -1
